{
  "source": "patent US11932673B2",
  "about": "“Sodium channel inhibitors” (priority 2017, dated 2024)",
  "molecules": {"B1": {"name": "KB_A07: EETI-II VL CDR2 KnotBody, D1A12 VH, VL SEQ ID NO: 136/372; parental/isotype control (antibody, V domains shown)", "VH": "EVQLVESGGGLVRPGGSLRLSCAASGFTFSSYAMSWVRQAPGKGLEWVSAISGSGGSTYYADSVKGRFTISRDNTKNSLYLQMTSLRADDTAFYYCVKDFGPGYGTGWFDYWGPGTLVTVSS", "VL": "DIQMTQSPSSLSASVGDRVTITCRASQSISSYLNWYQQKPGKAPKLLIYAAGVCPRILMRCKQDSDCLAGCVCGPNGFCGSRSGVPSRFSGSGSGTDFTLTISSLQPEDFATYYCQQGASPPYTFGQGTKVEIKR"}, "B2": {"name": "KB_A12_ProTx-III Gly (antibody, V domains shown)", "VH": "B1 VH", "VL": "QSVLTQPPSVSEAPRQRVTITCSGSSSNIGNNAVNWYQQLPGKAPKLLIYAAGRDCLKFGWKCNPRNDKCCSGLKCGSNHNWCKLHIGANSGVSDRFSAAKSGTSASLAINGLRSEDEADYYCAAWDDSLNGYVFGTGTKLTVLG"}, "B3": {"name": "KB_A12_ProTx-III 2M Gly: ProTx-III 2M Gly in VL CDR2 of KB_A12, IgG; Nav1.7 KnotBody (antibody, V domains shown)", "VH": "B1 VH", "VL": "B2 VL with D55G, L85W"}},
  "key": {"[1]": {"test_system": "trypsin", "assay": "TRF binding assay of purified KnotBody Fabs on biotinylated trypsin"}, "[2]": {"target": "T1, huASIC1a (Homo sapiens, UniProt P78348)", "T1 sequence (P78348 whole entry, looked up)": "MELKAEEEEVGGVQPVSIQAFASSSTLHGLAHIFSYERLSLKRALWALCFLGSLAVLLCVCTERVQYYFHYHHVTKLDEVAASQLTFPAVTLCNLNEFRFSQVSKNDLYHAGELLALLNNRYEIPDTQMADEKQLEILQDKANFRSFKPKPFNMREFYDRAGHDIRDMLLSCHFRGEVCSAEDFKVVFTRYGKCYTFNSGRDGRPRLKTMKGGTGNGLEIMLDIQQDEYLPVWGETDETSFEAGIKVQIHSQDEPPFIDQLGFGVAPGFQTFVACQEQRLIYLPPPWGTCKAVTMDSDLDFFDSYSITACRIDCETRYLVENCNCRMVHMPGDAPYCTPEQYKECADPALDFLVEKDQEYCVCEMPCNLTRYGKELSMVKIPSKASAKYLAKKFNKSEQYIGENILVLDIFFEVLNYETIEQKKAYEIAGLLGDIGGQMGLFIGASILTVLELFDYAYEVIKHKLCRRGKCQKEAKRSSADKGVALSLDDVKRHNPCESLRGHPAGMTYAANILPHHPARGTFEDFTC", "assay": "QPatch automated whole-cell patch-clamp on HEK293 cells stably expressing huASIC1a", "assay_type": "cell-based", "conditions": "pH 6.0 activation after 15-20 min pre-incubation; concentration μM: KB_A07_PcTx1 6.6, KB_A12_PcTx1 5, KB_A12_Mba-1 3, KB_A12_Mba-2 2.3, KB_A07 6, KB_A12 3.3", "protocol": "Knottin Kv 1.3 and ASIC1a blockers expressed in the KnotBody format (see examples 6 and 7) were tested for their ability to inhibit the function of the ion channel targets. The effect of these KnotBodies on cells expressing the human Kv 1.3 (huKv1.3) or human ASIC1a channels was assessed using QPatch automated whole-cell patch-clamp electrophysiology (Sophion).\nTo functionally assess the ASIC1a KnotBodies, HEK293 cells stably expressing huASIC1a (Sophion) were analysed using a QPatch electrophysiology assay in the presence or absence of the KnotBody fusions (using KB_A12 as a recipient and replacing the original EETI-II donor as shown in Table 8). The “parental” KB_A12 with the EETI-II donor was used as a negative control. Internal and external physiological solutions were freshly prepared prior to the assay. […]\nAt the end of each KnotBody incubation and subsequent ASIC1a current activation, a full blocking concentration (300 nM) of the ASIC1a knottin inhibitor PcTx1 (positive control) was perfused onto the cell recording and a final activating pH 6.0 external solution was applied. The percentage remaining signal between activating pH 6.0 baseline (i.e. pre-KnotBody) and post-KnotBody incubation was determined."}, "[3]": {"target": "LOX-1 (Homo sapiens, UniProt P78380)", "assay": "Phage TRF binding assay of adhiron-antibody fusions on LOX-1", "conditions": "monoclonal phage; LOX-1 directly immobilised; non-specific binding checked on cMET-FC, GAS6-CD4, FGFR4-CD4, UPA, B-gal", "protocol": "In order to test the functionality of these adhiron-antibody fusions, monoclonal phage prepared from each clone was assessed for binding to LOX-1 in a TRF binding assay. In this assay, LOX-1 (immobilised directly on Maxisorp™ plates) binding of phage displaying adhiron-antibody fusion was detected using a mouse anti-M13 antibody (GE Healthcare) followed by europium conjugated anti-mouse antibody (Perkin Elmer). Parent KnotBodies KB_A07 and KB_A12 (EETI-II fusions) were included as controls. Proteins cMET-FC, GAS6-CD4, FGFR4-CD4, UPA and B-gal were used to examine non-specific binding."}, "[4]": {"test_system": "trypsin", "assay": "Phage TRF binding assay of KnotBody phage on immobilised biotinylated trypsin", "protocol": "Phage display technology facilitates isolation of binders to any given target from large combinatorial repertoires based on proteins and peptides that can be presented on the surface of filamentous phage^105. In order to isolate functional knottin-antibody fusions from the KnotBody libraries multiple rounds of phage display selections on trypsin (cognate antigen for the EETI-II donor) were carried out. Phage particles were prepared by rescuing KnotBody libraries using trypsin cleavable helper phage^102,106 Two rounds of phage display selections were performed on 10 μg/ml biotinylated trypsin immobilised on Streptavidin (for Round-1) or Neutravidin (for round-2) coated Maxisorp™ immunotubes (Thermo Scientific, Cat No. 444202). In both rounds of selection, phage libraries were pre-incubated with streptavidin coated paramagnetic beads (Thermo Fisher Scientific, Cat. No. 11205D). These beads were removed prior to the addition the phage to the antigen tubes to limit the streptavidin binders entering the selection. Polyclonal phage preparations from round-2 selection outputs were analysed for trypsin binding using a time resolved fluorescence (TRF) binding assay. In this assay, polyclonal phage binding to biotinylated trypsin immobilised on neutravidin (Thermo Fisher Scientific, Cat. No 31000) coated Maxisorp™ plates (Thermo Scientific, Cat. No. 437111) was detected using a mouse anti-M13 antibody (GE Healthcare, Cat. No. 27-9420-01) followed by europium conjugated anti-mouse antibody (Perkin Elmer, Cat. No. AD0124).\nIn order to identify monoclonal KnotBodies with desired binding characteristics, 94 individual clones derived from 2 rounds of selection using EETI-II CDR1 or CDR2 libraries were picked into 96 well culture plates and phage were prepared from each clone. Methods for screening by monoclonal phage ELISA are known in the art^107. […] Clones with >3× binding signal above background were picked as positive clones and sequenced to identify unique clones. 14 and 42 unique binders were identified from EETI-II CDR1 and EETI-II CDR2 libraries respectively (Table 1). 18 binders from the EETI-II CDR2 library and 3 binders from the EETI-II-CDR1 library were chosen for further characterisation based on their VL and linker sequence diversity. These binders were assigned new clone identification numbers (Table 2). […] In order to confirm that the loss of trypsin binding was not due to reduced expression or display of pIII fusion phage was prepared from 11 (randomly chosen) KnotBodies and their GlyAla variants were analysed on a western blot using an antibody which recognises the product of gene 3 (pIII) using an anti-pIII antibody (MoBiTec GmbH) (FIG. 6)."}, "[5]": {"target": "human Nav1.7 (Homo sapiens, UniProt Q15858)", "sequence (Q15858 other isoform, or with tags, fused parts or gaps)": "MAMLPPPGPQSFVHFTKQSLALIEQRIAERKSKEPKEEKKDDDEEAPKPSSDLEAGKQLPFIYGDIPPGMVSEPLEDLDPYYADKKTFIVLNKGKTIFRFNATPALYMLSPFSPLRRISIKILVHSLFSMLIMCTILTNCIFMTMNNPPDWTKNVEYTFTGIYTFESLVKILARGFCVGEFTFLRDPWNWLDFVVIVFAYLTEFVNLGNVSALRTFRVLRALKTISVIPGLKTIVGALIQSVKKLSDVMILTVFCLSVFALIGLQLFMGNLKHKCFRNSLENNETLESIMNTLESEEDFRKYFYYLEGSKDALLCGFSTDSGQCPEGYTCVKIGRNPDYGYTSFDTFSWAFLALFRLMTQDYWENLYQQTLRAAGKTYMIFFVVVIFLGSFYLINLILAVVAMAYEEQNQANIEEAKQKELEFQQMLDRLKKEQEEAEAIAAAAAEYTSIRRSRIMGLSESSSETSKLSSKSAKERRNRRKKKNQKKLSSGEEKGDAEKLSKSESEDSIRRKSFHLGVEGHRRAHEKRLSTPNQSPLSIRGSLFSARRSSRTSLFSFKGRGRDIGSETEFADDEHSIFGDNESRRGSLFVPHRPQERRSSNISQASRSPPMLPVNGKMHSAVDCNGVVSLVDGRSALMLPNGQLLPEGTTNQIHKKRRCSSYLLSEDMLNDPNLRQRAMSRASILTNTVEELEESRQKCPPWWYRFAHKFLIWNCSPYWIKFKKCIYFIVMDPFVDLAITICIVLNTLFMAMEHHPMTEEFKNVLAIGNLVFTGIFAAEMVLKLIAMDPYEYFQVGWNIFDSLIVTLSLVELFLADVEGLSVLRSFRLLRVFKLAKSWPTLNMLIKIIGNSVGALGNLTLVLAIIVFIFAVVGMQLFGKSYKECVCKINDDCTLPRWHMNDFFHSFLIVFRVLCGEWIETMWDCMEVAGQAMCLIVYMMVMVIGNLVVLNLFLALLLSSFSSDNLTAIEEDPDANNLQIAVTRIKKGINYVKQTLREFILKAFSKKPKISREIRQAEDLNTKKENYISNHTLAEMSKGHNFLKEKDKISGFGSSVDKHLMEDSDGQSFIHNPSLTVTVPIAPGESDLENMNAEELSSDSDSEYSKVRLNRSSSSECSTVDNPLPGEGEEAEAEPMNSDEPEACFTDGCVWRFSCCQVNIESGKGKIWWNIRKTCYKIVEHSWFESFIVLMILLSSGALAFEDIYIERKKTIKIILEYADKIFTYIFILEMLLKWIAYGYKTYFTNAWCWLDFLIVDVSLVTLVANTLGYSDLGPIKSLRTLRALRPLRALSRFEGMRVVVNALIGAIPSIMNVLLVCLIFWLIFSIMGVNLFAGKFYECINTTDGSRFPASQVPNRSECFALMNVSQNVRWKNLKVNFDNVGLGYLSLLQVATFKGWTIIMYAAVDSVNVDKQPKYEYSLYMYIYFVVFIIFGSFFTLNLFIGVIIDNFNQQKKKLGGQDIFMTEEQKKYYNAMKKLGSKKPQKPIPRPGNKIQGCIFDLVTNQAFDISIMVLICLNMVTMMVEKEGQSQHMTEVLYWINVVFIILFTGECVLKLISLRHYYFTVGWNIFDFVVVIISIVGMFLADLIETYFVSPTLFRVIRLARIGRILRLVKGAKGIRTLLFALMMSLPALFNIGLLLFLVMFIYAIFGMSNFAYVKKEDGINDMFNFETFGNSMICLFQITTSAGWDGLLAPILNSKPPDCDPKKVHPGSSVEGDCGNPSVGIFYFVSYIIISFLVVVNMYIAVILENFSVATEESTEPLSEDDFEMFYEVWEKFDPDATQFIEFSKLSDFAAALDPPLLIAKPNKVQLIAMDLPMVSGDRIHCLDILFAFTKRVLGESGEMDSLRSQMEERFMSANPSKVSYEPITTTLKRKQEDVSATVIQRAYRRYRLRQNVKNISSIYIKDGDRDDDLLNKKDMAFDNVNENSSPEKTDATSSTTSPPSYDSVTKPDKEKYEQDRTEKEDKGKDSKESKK", "assay": "QPatch patch-clamp on CHO cells stably expressing human Nav1.7, single application (Example 19)", "assay_type": "cell-based", "protocol": "The effect of these KnotBodies on cells expressing human Nav1.7 (huNav1.7) channel was assessed using QPatch automated patch-clamp platform (Sophion). For the testing of Nav1.7 ion channel currents, CHO cells stably expressing human Nav1.7 (GenBank accession number NM 002977; cell line catalogue number CT6003, Charles River Discovery, Cleveland, USA) were subjected to the QPatch electrophysiology assay in the presence or absence of the KnotBody fusions or the antibody isotypes (negative controls). Internal and external physiological solutions were freshly prepared prior to the assay. The extracellular solution contained 145 mM NaCl, 4 mM KCl, 2 mM CaCl2, 1 mM MgCl2, 10 mM HEPES and 10 mM glucose; the pH was adjusted to 7.4 with NaOH; the osmolarity was ˜305 mOsm/L. The intracellular solution contained: KF (120 mM), KCl (20 mM), HEPES (10 mM) EGTA (10 mM); the pH was adjusted to 7.2 with KOH; osmolarity was ˜300 mOsm/L.\nA series of depolarising voltage (channel activating) pulses were used to monitor the channel currents upon adding control (extracellular solution) to define a control baseline of current activity. To these measured control channel currents KnotBody or parental antibody isotypes (control molecules) were applied to the external bathing solution. The parental KnotBody KB_A12 (with trypsin inhibitor knottin EETI-II at CDR2) were used as test molecule isotype controls for the testing. […] The elicited, maximum outward current values measured during the −10 mV activating step for each solution period (a control, baseline level of current was determined at 10 minutes after application of the control external recording solution and a test level of current was determined after 20 minutes of application of KnotBody or its isotype) and average inhibition was determined between the current from the 10 minute baseline control current and the subsequent 20 minute KnotBody application. […] The average inhibition values (with external control reduction subtracted) for KnotBodies and isotypes was calculated."}},
  "note": "Positions count from the first letter of the chain named.",
  "data": [
    {"molecule": "B1", "values": [
      {"measurement": "TRF signal for 0.6 ug/mL Fab", "setting": "[1]; KnotBody Fab 0.6 ug/mL, background (no Fab) 431", "value": 107814},
      {"measurement": "TRF signal for 2.4 ug/mL Fab", "setting": "[1]; KnotBody Fab 2.4 ug/mL, background (no Fab) 406", "value": 201003},
      {"measurement": "TRF signal for 10 ug/mL Fab", "setting": "[1]; KnotBody Fab 10 ug/mL, background (no Fab) 420", "value": 226082},
      {"measurement": "% current remaining", "setting": "[2]", "value": 70.9, "unit": "%"},
      {"measurement": "binding to LOX-1", "setting": "[3]", "value": "no detectable binding to the LOX-1"},
      {"measurement": "% reduction in binding signal", "setting": "[4]; […], monoclonal phage, streptavidin coated plates", "value": 98, "unit": "%"},
      {"measurement": "Tryspin binding signal (FU)", "setting": "[4]; monoclonal phage supernatant, biotinylated trypsin on neutravidin coated plates, TRF", "value": 21448, "unit": "FU"}
    ]},
    {"molecule": "B2", "values": [
      {"measurement": "Mean % inhibition of Nav1.7 currents", "setting": "[5]; concentration tested 22.3 μM", "value": 26.6, "unit": "%"}
    ]},
    {"molecule": "B3", "values": [
      {"measurement": "Mean % inhibition of Nav1.7 currents", "setting": "[5]; concentration tested 15.4 μM", "value": 63.5, "unit": "%"}
    ]}
  ]
}
